Assay results taken from paper PMC6123635, “Molecular basis for governing the morphology of type-I collagen fibrils by Osteomodulin” (Communications Biology, 2018).

Experiments:
[1] = target: Type-I collagen (VitroCol, human) (human) (UniProt P02452)
[2] = target: Type-I collagen (VitroCol, human) (human) (UniProt P02452); experiment: SPR; collagen immobilised on CM5 chip at around 8000 RU; OMD or muteins injected (0.125-2 µM), 30 µl/min; PBS pH 7.4, 0.005% Tween-20, 20 °C; KD by steady state analysis; binding response at 2 µM
[3] = target: T1, Type-I collagen (VitroCol, human) (human, UniProt P02452 162-1218; P08123 80-1119); experiment: as above; details: both partners purified
T1 construct: collagen alpha-1(I) chain, human; collagen alpha-2(I) chain, human; the enzyme treatment of the manufacturer may have removed the telopeptides; in immunoelectron microscopy the collagen had been incubated to form fibrils; also called collagen molecules; collagen fibrils; source: bought: Advanced BioMatrix (VitroCol), secreted from human neo-natal fibroblast cells, purified by enzyme treatment
T1 sequence (P02452 162-1218, chain 1 of 2): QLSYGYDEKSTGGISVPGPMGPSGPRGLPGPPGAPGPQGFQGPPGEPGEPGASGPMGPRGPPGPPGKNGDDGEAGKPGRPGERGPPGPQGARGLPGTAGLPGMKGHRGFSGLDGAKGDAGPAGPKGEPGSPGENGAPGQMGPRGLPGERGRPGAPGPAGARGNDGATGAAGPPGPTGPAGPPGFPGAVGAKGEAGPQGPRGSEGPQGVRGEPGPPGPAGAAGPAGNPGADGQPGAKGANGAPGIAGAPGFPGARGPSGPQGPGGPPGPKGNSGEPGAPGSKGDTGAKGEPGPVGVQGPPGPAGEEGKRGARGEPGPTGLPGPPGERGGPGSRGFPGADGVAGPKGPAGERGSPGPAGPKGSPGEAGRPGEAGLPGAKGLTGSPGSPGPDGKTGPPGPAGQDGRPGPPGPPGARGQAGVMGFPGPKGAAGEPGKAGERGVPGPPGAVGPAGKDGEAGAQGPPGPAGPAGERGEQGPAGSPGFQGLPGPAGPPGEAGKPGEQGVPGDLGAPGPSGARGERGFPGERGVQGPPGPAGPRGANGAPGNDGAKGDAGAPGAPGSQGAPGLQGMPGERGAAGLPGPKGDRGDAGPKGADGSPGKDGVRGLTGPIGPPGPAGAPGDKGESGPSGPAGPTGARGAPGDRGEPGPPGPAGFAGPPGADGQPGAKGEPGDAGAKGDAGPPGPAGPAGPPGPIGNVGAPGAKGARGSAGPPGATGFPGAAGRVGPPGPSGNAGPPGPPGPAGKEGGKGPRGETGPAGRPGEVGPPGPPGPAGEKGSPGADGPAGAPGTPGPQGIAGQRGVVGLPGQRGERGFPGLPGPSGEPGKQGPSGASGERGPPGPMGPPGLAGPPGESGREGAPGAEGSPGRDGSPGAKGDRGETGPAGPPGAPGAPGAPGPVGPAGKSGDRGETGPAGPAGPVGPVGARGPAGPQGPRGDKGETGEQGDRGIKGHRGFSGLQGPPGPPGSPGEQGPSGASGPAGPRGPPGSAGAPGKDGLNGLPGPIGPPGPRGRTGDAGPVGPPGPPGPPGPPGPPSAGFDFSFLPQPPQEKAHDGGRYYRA
T1 sequence (P08123 80-1119, chain 2 of 2): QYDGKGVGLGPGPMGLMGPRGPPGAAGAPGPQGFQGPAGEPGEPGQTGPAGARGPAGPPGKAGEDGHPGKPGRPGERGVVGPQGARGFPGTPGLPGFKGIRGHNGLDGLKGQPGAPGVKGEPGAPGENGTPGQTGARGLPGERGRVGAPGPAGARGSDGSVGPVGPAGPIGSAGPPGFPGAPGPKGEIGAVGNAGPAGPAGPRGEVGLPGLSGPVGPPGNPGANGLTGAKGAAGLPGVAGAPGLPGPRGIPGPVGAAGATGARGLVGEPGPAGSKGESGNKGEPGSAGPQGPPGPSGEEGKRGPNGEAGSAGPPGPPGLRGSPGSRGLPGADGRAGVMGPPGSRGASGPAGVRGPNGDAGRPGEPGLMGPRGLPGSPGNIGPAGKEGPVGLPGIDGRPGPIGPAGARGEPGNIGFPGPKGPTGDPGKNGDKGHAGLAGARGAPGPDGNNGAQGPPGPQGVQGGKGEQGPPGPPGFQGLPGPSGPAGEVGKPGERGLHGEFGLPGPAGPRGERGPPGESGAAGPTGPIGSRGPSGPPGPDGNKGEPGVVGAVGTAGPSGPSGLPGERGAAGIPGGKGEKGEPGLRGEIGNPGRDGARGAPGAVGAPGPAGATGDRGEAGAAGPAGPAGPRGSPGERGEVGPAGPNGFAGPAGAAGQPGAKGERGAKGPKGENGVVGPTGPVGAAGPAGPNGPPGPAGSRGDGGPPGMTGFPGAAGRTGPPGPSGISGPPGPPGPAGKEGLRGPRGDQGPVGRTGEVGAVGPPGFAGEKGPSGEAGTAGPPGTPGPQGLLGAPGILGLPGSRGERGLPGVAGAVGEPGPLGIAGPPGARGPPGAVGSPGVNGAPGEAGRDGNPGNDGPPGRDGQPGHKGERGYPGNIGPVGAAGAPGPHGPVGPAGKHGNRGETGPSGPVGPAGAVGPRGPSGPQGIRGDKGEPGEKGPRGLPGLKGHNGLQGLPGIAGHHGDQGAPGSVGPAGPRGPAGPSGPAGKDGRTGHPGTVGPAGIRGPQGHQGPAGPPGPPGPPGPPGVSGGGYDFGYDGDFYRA

[4] = target: T1, Type-I collagen (VitroCol, human); experiment: cell-based or functional assay
[5] = target: T1, Type-I collagen (VitroCol, human); experiment: SPR; temperature dependence of the dissociation constant, van't Hoff analysis; values given at 32 °C; details: both partners purified

Type-I collagen (VitroCol, human) (human), sequence (P02452 162-1218, chain 1 of 2): as the sequence (P02452 162-1218, chain 1 of 2) above
Type-I collagen (VitroCol, human) (human), sequence (P08123 80-1119, chain 2 of 2, further chain): as the sequence (P08123 80-1119, chain 2 of 2) above

Molecule: Chimeric OMD (chOMD): N-terminal region of the leucine-rich repeat domain of internalin B fused to a large portion of OMD (from UniProt Q99983 117-364)
- IC50 (µM) of inhibition of collagen fibril formation (normalized kobs, 1 µM collagen, PBS pH 7.4, 30 °C) [1]: 0.22 μM
- kobs (per h) of collagen fibril formation with 0, 0.016, 0.08, 0.4, 2 and 10 μM chOMD (0.89 down to 0.00) [1]: 0.89 per h
- Binding (RU) at 2 µM [2]: 118 RU
- Kd [2]: 25.4 µM

Molecule: chOMD D254R (from UniProt Q99983 117-364)
- Binding (RU) at 2 µM [2]: 74.8 RU
- Kd [2]: 22.3 µM

Molecule: chOMD D271R (from UniProt Q99983 117-364)
- Binding (RU) at 2 µM [2]: 71 RU
- Kd [2]: 25.6 µM

Molecule: chOMD E173R (from UniProt Q99983 117-364)
- Binding (RU) at 2 µM [2]: 118 RU
- Kd [2]: 51.4 µM

Molecule: chOMD E225R (from UniProt Q99983 117-364)
- Binding (RU) at 2 µM [2]: 106 RU
- Kd [2]: 29.1 µM

Molecule: chOMD E284A (from UniProt Q99983 117-364)
- IC50 (µM) of inhibition of collagen fibril formation (normalized kobs, 1 µM collagen, PBS pH 7.4, 30 °C) [1]: 0.32 μM
- kobs (per h) of collagen fibril formation with 0, 0.016, 0.08, 0.4, 2 and 10 μM chE284A (1.02 down to 0.00003) [1]: 1.02 per h
- Binding (RU) at 2 µM [2]: 57.4 RU
- Kd [2]: 78.3 µM

Molecule: chOMD E284R (from UniProt Q99983 117-364)
- IC50 (µM) of inhibition of collagen fibril formation (normalized kobs, 1 µM collagen, PBS pH 7.4, 30 °C) [1]: 0.61 μM
- kobs (per h) of collagen fibril formation with 0, 0.016, 0.08, 0.4, 2 and 10 μM chE284R (0.90 down to 0.00028) [1]: 0.9 per h
- Binding (RU) at 2 µM [2]: 22.3 RU
- Kd [2]: 32000 µM

Molecule: chOMD E284R/E303R (from UniProt Q99983 117-364)
- IC50 (µM) of inhibition of collagen fibril formation (normalized kobs, 1 µM collagen, PBS pH 7.4, 30 °C) [1]: 2.18 μM
- kobs (per h) of collagen fibril formation with 0, 0.016, 0.08, 0.4, 2 and 10 μM chE284R/E303R (1.00 down to 0.65) [1]: 1 per h

Molecule: chOMD E303A (from UniProt Q99983 117-364)
- IC50 (µM) of inhibition of collagen fibril formation (normalized kobs, 1 µM collagen, PBS pH 7.4, 30 °C) [1]: 0.37 μM
- kobs (per h) of collagen fibril formation with 0, 0.016, 0.08, 0.4 and 2 μM chE303A (1.32 down to 0.51; n.d. at 10 μM) [1]: 1.32 per h

Molecule: chOMD E303R (from UniProt Q99983 117-364)
- IC50 (µM) of inhibition of collagen fibril formation (normalized kobs, 1 µM collagen, PBS pH 7.4, 30 °C) [1]: 1.87 μM
- kobs (per h) of collagen fibril formation with 0, 0.016, 0.08, 0.4, 2 and 10 μM chE303R (1.35 down to 0.10) [1]: 1.35 per h
- Binding (RU) at 2 µM [2]: 3.7 RU
- Kd [2]: 72.4 µM

Molecule: chOMD E311R (from UniProt Q99983 117-364)
- Binding (RU) at 2 µM [2]: 22.6 RU
- Kd [2]: 5.48 µM

Molecule: chOMD N278R (from UniProt Q99983 117-364)
- Binding (RU) at 2 µM [2]: 47.4 RU
- Kd [2]: 14.3 µM

B1: Osteomodulin (OMD), human, recombinant with C-terminal FLAG-tag (natural protein, UniProt Q99983 21-421, looked up)
chain: QYETYQWDEDYDQEPDDDYQTGFPFRQNVDYGVPFHQYTLGCVSECFCPTNFPSSMYCDNRKLKTIPNIPMHIQQLYLQFNEIEAVTANSFINATHLKEINLSHNKIKSQKIDYGVFAKLPNLLQLHLEHNNLEEFPFPLPKSLERLLLGYNEISKLQTNAMDGLVNLTMLDLCYNYLHDSLLKDKIFAKMEKLMQLNLCSNRLESMPPGLPSSLMYLSLENNSISSIPEKYFDKLPKLHTLRMSHNKLQDIPYNIFNLPNIVELSVGHNKLKQAFYIPRNLEHLYLQNNEIEKMNLTVMCPSIDPLHYHHLTYIRVDQNKLKEPISSYIFFCFPHIHTIYYGEQRSTNGQTIQLKTQVFRRFPDDDDESEDHDDPDNAHESPEQEGAEGHFDLHYYENQE
notes: osteomodulin (OMD), human, without residues 1-20 (signal peptide), residues 21-421; Its own signal peptide was replaced by the sp1-2 signal peptide for secretion; Carbohydrate is modelled in the crystal structure; Monomer by SEC-MALS; also called full-length OMD; WT OMD; source: Sf9 cells, baculovirus, secreted; not shown: FLAG, C-terminal, kept
- Kd [3]: 24.6 µM
- IC50 (µM) of inhibition of collagen fibril formation (normalized kobs, 1 µM collagen, PBS pH 7.4, 30 °C) [4]: 0.08 μM
- Kd [5]: 12 µM
- dH [5]: 7.9 kcal/mol

B2: OMD E284R/E303R (double mutant in the construct of full-length OMD) (natural protein, human, UniProt Q99983 21-421, looked up)
chain: QYETYQWDEDYDQEPDDDYQTGFPFRQNVDYGVPFHQYTLGCVSECFCPTNFPSSMYCDNRKLKTIPNIPMHIQQLYLQFNEIEAVTANSFINATHLKEINLSHNKIKSQKIDYGVFAKLPNLLQLHLEHNNLEEFPFPLPKSLERLLLGYNEISKLQTNAMDGLVNLTMLDLCYNYLHDSLLKDKIFAKMEKLMQLNLCSNRLESMPPGLPSSLMYLSLENNSISSIPEKYFDKLPKLHTLRMSHNKLQDIPYNIFNLPNIVRLSVGHNKLKQAFYIPRNLRHLYLQNNEIEKMNLTVMCPSIDPLHYHHLTYIRVDQNKLKEPISSYIFFCFPHIHTIYYGEQRSTNGQTIQLKTQVFRRFPDDDDESEDHDDPDNAHESPEQEGAEGHFDLHYYENQE
- IC50 (µM) of inhibition of collagen fibril formation (normalized kobs, 1 µM collagen, PBS pH 7.4, 30 °C) [4]: 0.29 μM
